Results: the supplement of paper PMC9170038

Test system: MS2 coat protein
Experiment: apparent KD of MS2 coat protein; designed switch direction (-1 OFF switch, 1 ON switch): -1; higher = weaker reporter binding
In short: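 An oligonucleotide input, 200 uM small-molecule ligand, or no input was present during titration of SNAP-549-labelled MS2 coat protein, which was doubled from 0.7 or 1.5 nM to 3 µM. Designed RNA switches had been transcribed on Illumina chips by stalled E. coli RNA polymerase. Apparent KD per design is the median over clusters of curves fitted to normalised cluster fluorescence.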

[1] = Eterna round: R95, input ligand: FMN 200 uM
[2] = Eterna round: R95, input ligand: microRNA oligo, concentration not stated
[3] = Eterna round: R95, input ligand: none
[4] = input ligand: microRNA oligo, concentration not stated

Row | Sequence | apparent KD of MS2 coat protein [2] | apparent KD of MS2 coat protein (input ligand: FMN 200 uM) | apparent KD of MS2 coat protein (input ligand: none) | also measured
1 | GUGGAGUAAGGAUAUACAUGAGGAUCACCCAUGUAAGGGAAGGUGAUGGGAGUAGAUAGUAGAAGGUACGAGGA [JR_Exclu3_Sub067] (puzzle: Exclusion 3) | 97.2 nM | – | – | apparent KD of MS2 coat protein [1]: 58.3 nM; apparent KD of MS2 coat protein [3]: 100 nM
2 | GUGGCACAUGAGGAUCACCCAUGUCAGGAUAUCGCGUGGUUUUUUGCGGCCGCGCGCGCGAGAAGGGACGUCUU (puzzle: Exclusion 1) | 31.1 nM | – | – | –
3 | GUGGCACUAGUGAGGAUAUGGAAAUUGACAGAUAUCCAGAAGGCACAUGAGGAUCACCCAUGUCGAAUCCAGCA [Eternabot (L1) Solution 81] (Eterna round: R97, puzzle: Brourd's mod of Exclusion 4) | – | 36.9 nM | 22.8 nM | –
4 | GUGUAACAAGGAUAUACAUGAGGAUCACCCAUGUGAAUAAGAUUGAAUAAGAUAAAGUGUAGAAGGUGUAGUGU [Excluse me!!! 9 - Jieux - Exclusion 3] (puzzle: Exclusion 3) | 31.6 nM | – | – | apparent KD of MS2 coat protein [1]: 32.5 nM; apparent KD of MS2 coat protein [3]: 37.1 nM
5 | GUGUAACUACACGGGCUCAACAUGAGGAUCACCCAUGUCAUACACGCAAGCUCUUUGCUUGUCUUAUCUGUCCGUGA [Erriusti] (puzzle: Sensor v3, turn-off variant 1) | 16.6 nM | – | – | apparent KD of MS2 coat protein [1]: 16.8 nM; apparent KD of MS2 coat protein [3]: 14.5 nM
6 | GUGUAACUACACGGGCUCAACAUGAGGAUCACCCAUGUCAUACACGCAAGCUUUUUGCUUGUCUUAUCUGUCCGUGU [Cegeesre] (puzzle: Sensor v3, turn-off variant 1) | 12.2 nM | – | – | apparent KD of MS2 coat protein [1]: 12.4 nM; apparent KD of MS2 coat protein [3]: 11.5 nM
7 | GUGUACAGAGGAUAUACUUAUGGAGUCACGAAAGUGGCUUCACAUGAGGAUCACCCAUGUAGAAGGCUGUACAC [Dot plot directed v11] (puzzle: Exclusion 2) | 23.7 nM | – | – | –
8 | GUGUACCGAGGAUAUGCUGGAAUCUAGCGAAGCUAGGUUCCACAUGAGGAUCACCCAUGUAGAAGGUGGUACAC [Dot plot directed A v7] (puzzle: Exclusion 2) | 55.5 nM | – | – | –
9 | GUGUAGAGAGGAUAUACAUGAGGAUCACCCAUGUGAAUAAGAUAGAAUAAGAUAAAGUGUAGAAGGUUUAGUGU [Excluse me!!! 18 - Jieux - Exclusion 3] (puzzle: Exclusion 3) | 38.4 nM | – | – | –
10 | GUGUAGAUAGGAUAUACAUGAGGAUCACCCAUGUGAAUAAGAUAGAAUAAGAUAAAGUGUAGAAGGGUUAGUGU [Excluse me!!! 19 - Jieux - Exclusion 3] (puzzle: Exclusion 3) | 30.2 nM | – | – | apparent KD of MS2 coat protein [1]: 34.3 nM; apparent KD of MS2 coat protein [3]: 39.9 nM
11 | GUGUUGUCAGGAUAUCUUACAUAACUAUCGUUGUUACCAUUGGAGAAGGGACAUGAGGAUCACCCAUGUUUUCG [tap-tap-tappy50] (Eterna round: R97, puzzle: Exclusion 4) | – | 23.9 nM | 24.6 nM | –
12 | GUUAACGUAGGAUAUUAGUACAUACACAUGAGGAUCACCCAUGUUUAGUGGGUCUAAGAAUAAGAAGGGCGAAGAA [EX5 #25] (Eterna round: R97, puzzle: Exclusion 5) | – | 117 nM | 130 nM | –
13 | GUUAAGGUAGGAUAUACGAUAAUAGAGGGUAGAUAUAUAACACAUGAGGAUCACCCAUGUAGAAGGACCAAUUG [Mat - Exclusion 2 - Mod of my Tesla design - D58] (puzzle: Exclusion 2) | 41.2 nM | – | – | apparent KD of MS2 coat protein [1]: 91.3 nM; apparent KD of MS2 coat protein [3]: 36.8 nM
14 | GUUAAGGUAGGAUAUACGAUAAUAUAGGGUAGAUAUAGAACACAUGAGGAUCACCCAUGUAGAAGGACCAAUUG [Mat - Exclusion 2 - Mod of my Tesla design - D54] (puzzle: Exclusion 2) | 28.6 nM | – | – | –
15 | GUUACACAUGAGGAUCACCCAUGUAAGGAUAUGCUGCGGUCGCGAAAACGUGACUGCAGCAGAAGGUACACAUG [Mat - Mod of JL D61] (puzzle: Exclusion 1) | 135 nM | – | – | –
16 | GUUACACAUGAGGAUCACCCAUGUAAGGAUAUGCUGCGGUCGCGCUGACGUGACUGCAGCAGAAGGUACAAUUG (puzzle: Exclusion 1) | 67.6 nM | – | – | –
17 | GUUCGGGCAGGAUAUACAUGAGGAUCACCCAUGUGUGUCCAUACGCGUGAGUCUUCGUGUAGAAGGGUUUGGGC [-30.5, -27.8 kcal, 20% A] (Eterna round: R97, puzzle: Exclusion 3) | – | 27.3 nM | 21.1 nM | –
18 | GUUGACGGAGGAUAUACAGCCGAGAUCCACCGUGUGGAGGAACAUGAGGAUCACCCAUGUAGAAGGCUGCAGUA [Eternabot (L2) Solution 92] (Eterna round: R97, puzzle: Exclusion 2) | – | 16 nM | 17.1 nM | –

Row | Sequence | apparent KD of MS2 coat protein [2] | apparent KD of MS2 coat protein (input ligand: FMN 200 uM) | apparent KD of MS2 coat protein (input ligand: none) | also measured
19 | GUUGCAAGCACUUACGUUGACAUGAGGAUCACCCAUGUAGCAUCUCCGCCAAUCUAAGCCGUUGUCUUAUAUACCUU [Eternabot (L2) Solution 3] (Eterna round: R97, puzzle: Sensor, turn-off variant 1) | – | 34.5 nM | 51.7 nM | –
20 | GUUGGUAAGUCAGGAUAUCCCUGUAAUGGCAGCGGAGAAGGGACAUGAGGAUCACCCAUGUGAACCUCCGGCGGGUAAACCCGC [Issoange] (Eterna round: R96, puzzle: Exclusion NG 1) | – | 103 nM | 37.1 nM | apparent KD of MS2 coat protein [4]: 20.5 nM
21 | GUUGUUUAUGUAGGAUAUGCCUGGCGAGCCUAAGCAGAAGGACAUGAGGAUCACCCAUGUAUUGCGGUCUGCGUUCAGAUCGCU [salish99_ExNG1_r4_018] (Eterna round: R96, puzzle: Exclusion NG 1) | – | 38.3 nM | 18.9 nM | apparent KD of MS2 coat protein [4]: 9.94 nM
22 | GUUGUUUAUGUAGGAUAUGCCUGGCGUGCCUAUGCAGAAGGACAUGAGGAUCACCCAUGUAUUGCGGUCUGCGUUCAGAUCGCU [salish99_ExNG1_r4_020] (Eterna round: R96, puzzle: Exclusion NG 1) | – | 23.2 nM | 22 nM | apparent KD of MS2 coat protein [4]: 15.8 nM
23 | GUUUCGAGACGGAGAUCCGACAUGAGGAUCACCCAUGUCUCCCAAGCUUUUUGCUCGUCUUAUACUCCUCUGUUCUC [Elimod 47 - Jieux - Sensor, turn-off variant 1] (Eterna round: R97, puzzle: Sensor, turn-off variant 1) | – | 18 nM | 19.4 nM | –
24 | GUUUGACAUGAGGAUCACCCAUGUAAGGAUAUACGAGUAGCUACUAGGUAGUUAGUAUGUAGAAGGUACGUGUU [EX1 #65] (Eterna round: R97, puzzle: Exclusion 1) | – | 50.4 nM | 40.3 nM | –
25 | GUUUUCAGACGGAGAUCCUACAUGAGGAUCACCCAUGUCUCACAAGCUUUUUGCUCGUCUUAUUCUCCUCUGUUCUC [Elimod 41 - Jieux - Sensor, turn-off variant 1] (Eterna round: R97, puzzle: Sensor, turn-off variant 1) | – | 23.8 nM | 26.1 nM | –
26 | GUUUUCAGACGGAGAUCCUACAUGAGGAUCACCCAUGUCUCUCUUGCUAAUUGCUCGUCUUUUCCUCCUCUGUUCUC [Elimod 35 - Jieux - Sensor, turn-off variant 1] (Eterna round: R97, puzzle: Sensor, turn-off variant 1) | – | 457 nM | 567 nM | –
27 | UAAAACGCAGAGGAUAUAUCAGAUCAAAGCUGCAUAGAAGGCUGCACAUGAGGAUCACCCAUGUGGUCUUUAAU [Mat - Exclusion 6 - JL Mod - D1] (Eterna round: R97, puzzle: Exclusion 6) | – | 206 nM | 20.6 nM | –
28 | UAAAAGCUAGGAUAUACAUGAGGAUCACCCAUGUCACGGGUGCCACACCGAAAGGUGCGUAGAAGGAGCCCAAA [Orrecedi] (puzzle: Exclusion 3) | 38.4 nM | – | – | –
29 | UAAAAGCUAGGAUAUGCAAGGUCCGACAUGAGGAUCACCCAUGUGCUCCUAUGCACAUUUGCAGAAGGAGCGAAAA [EX5 A.6] (Eterna round: R97, puzzle: Exclusion 5) | – | 537 nM | 83 nM | –
30 | UAAAAGGAUGUCAGGAUAUGCGCUUGGGAUCAAGAGCAGAAGGGACAUGAGGAUCACCCAUGUAACGGUGCGAA [Oraninus] (puzzle: Brourd's mod of Exclusion 4) | 33.9 nM | – | – | apparent KD of MS2 coat protein [1]: 36.4 nM; apparent KD of MS2 coat protein [3]: 44.5 nM
31 | UAAAAGGUAGGAUAUACGAAAAAAAAGGGUAGAAAAAAAACACAUGAGGAUCACCCAUGUAGAAGGACCAAAAC [salish99_ex2_r3_047] (puzzle: Exclusion 2) | 33.2 nM | – | – | apparent KD of MS2 coat protein [1]: 103 nM; apparent KD of MS2 coat protein [3]: 30.3 nM
32 | UAAAAUCUAGGAUAUACAUGAGGAUCACCCAUGUUGCUCCCAGCUCGUGACCUCCAAUGUAGAAGGAGAACGAU [EX3 A.15] (Eterna round: R97, puzzle: Exclusion 3) | – | 19.8 nM | 20.1 nM | –
33 | UAAACAAGCUAAAGAUCCCACAUGAGGAUCACCCAUGUGCUCGUCUUGUAACGUACUGUGACGAAAGUCACGGUACG [JL TOV1 3.11] (Eterna round: R97, puzzle: Sensor, turn-off variant 1) | – | 19.1 nM | 22.8 nM | –
34 | UAAACAAGCUAAAGAUUCUACAUGAGGAUCACCCAUGUGCUCGUCUUAUAAGGUACUGUGACGAAAGUCACGGUACC [JL TOV1 3.07] (Eterna round: R97, puzzle: Sensor, turn-off variant 1) | – | 17.9 nM | 21.1 nM | –
35 | UAAACCAGAGGAUAUGCGAAUAAAUAAAACUUUUUUUUUUAACAUGAGGAUCACCCAUGUAGAAGGCUGCAAUU [Ex2 #32] (Eterna round: R97, puzzle: Exclusion 2) | – | 30.4 nM | 30 nM | –
